# In publication PMC10113246, “Disease-related p63 DBD mutations impair DNA binding by distinct mechanisms and varying degree”:
# T1: ΔNp63α R227Q (UniProt Q9H3D4-2 1-586, R172Q)
# T1 sequence: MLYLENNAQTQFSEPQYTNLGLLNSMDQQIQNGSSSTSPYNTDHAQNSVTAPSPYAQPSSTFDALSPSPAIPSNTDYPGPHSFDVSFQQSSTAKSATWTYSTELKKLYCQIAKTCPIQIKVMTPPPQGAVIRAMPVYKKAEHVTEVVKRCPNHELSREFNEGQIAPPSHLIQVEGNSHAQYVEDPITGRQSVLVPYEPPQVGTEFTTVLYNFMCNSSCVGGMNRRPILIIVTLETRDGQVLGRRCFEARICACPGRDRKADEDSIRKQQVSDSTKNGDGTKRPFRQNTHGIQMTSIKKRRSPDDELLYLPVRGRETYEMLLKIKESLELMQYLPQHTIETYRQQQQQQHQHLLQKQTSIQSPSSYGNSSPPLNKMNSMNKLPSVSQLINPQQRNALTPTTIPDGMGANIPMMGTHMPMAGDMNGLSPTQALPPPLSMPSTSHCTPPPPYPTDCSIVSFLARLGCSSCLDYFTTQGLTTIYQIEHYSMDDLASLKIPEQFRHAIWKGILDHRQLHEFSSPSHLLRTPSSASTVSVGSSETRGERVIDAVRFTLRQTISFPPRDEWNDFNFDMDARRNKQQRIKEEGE
# Molecular target: T1, ΔNp63α R227Q
# Assay: pull-down; not significantly different from WT; SPR DBD-TD: 25 mM HEPES pH 7.5, 200 mM NaCl, 0.5 mM TCEP, 0.005% Tween-20; SPR DBD: 10 mM HEPES pH 7.5, 150 mM NaCl, 0.2 mM TCEP, 0.005% Tween-20; random-sequence dsDNA (S12/S13) as reference cell; pull-down: 50 mM Tris pH 8.0, 150 mM NaCl, 0.1% Tween-20, 4 °C
# Conditions: protein: ivt, tags: Myc, chain copies: 4, blunt
binder,measurement,setting,value
p21 RE (pulldown) (dsDNA) DNA 1: GCCAGGAACATGTCCCAACATGTTGAGCCG DNA 2: CGGCTCAACATGTTGGGACATGTTCCTGGC,binding result,label: 5' biotin on S8,binds
KRT14 RE (pulldown) (dsDNA) DNA 1: AAAATATGACAGACATGATGAGGCGGATGA DNA 2: TCATCCGCCTCATCATGTCTGTCATATTTT,binding result,label: 5' biotin on S10,binds
